The values that follow come from the nanobody polyreactivity screen of Harvey et al. (2022).

A short description of the series: yeast display, Sf9 membrane polyspecificity reagent, FACS + sequencing; frameworks hold sequencing errors. The method, boiled down: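 Sorting gates, low and high (top ~1%), were placed on anti-HA fluorescence to track expression and on streptavidin fluorescence to track reagent binding. A clone's polyreactivity label is taken from the gate it came out of. The reagent was 10% biotinylated, detergent-solubilized Sf9 membrane, applied for 1 hour at 4 °C to galactose-induced yeast display cells.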
On to “QVQLVESGGGLDQAGGSLRLICAASGFIFEYYAMGWYRQAPGKERELVASITSGGTTYYADSVKGRFTISRDNAKNTVYLQMNSLKPEDTAVDYCAAAWRIWWYHRGEFDYWGQGTQVTVSS”, for which the “polyreactivity (PSR sort gate)” value is recorded as “high polyreactivity”.

“QVQLVESGGGLDQAGGSLRLICAASGRIFKWYAMGWYRQAPGKERELVATITWSGGSTYYADSVKGRFTISRDNAQNTVYLQMNSLKAEDTAVYYCNADTWLALPCFDYWGQGTQVTVSS”: the “polyreactivity (PSR sort gate)” value is “high polyreactivity”.

Take “QVQLVESGGGLDQAGGSLRLRCAPSGRIFSYVMGWYRQAPGKERELVAAISGGVRTYYADSVKGRFTISRDNAKNTVYLQMNSLKPEDTAVYYCNADWYRKRNYWGQGTQVTVSS”: the “polyreactivity (PSR sort gate)” value is listed as “high polyreactivity”.

Take “QVQLVESGGGLDQAGGSLRLSCAAAGRTFPYYAMGWYRQAPGKERELVATISTSGTSTYYADSVKGRFTISRDKAKNTVYLQMNSLKPEDTAVYYCNAVHRNWRQKFDYWGLGTQVTVSS”: the “polyreactivity (PSR sort gate)” value is reported as “high polyreactivity”.

Consider “QVQLVESGGGLDQAGGSLRLSCAASASTFRRYAMGWYRQAPGKERELVAAISRSGGNTYYADSVKGRFTISRDNAKNTVYLQMNSLKPEDTAVYYCAASKLYGSPEHGYWGQGTQVTVSS”, for which the “polyreactivity (PSR sort gate)” value is “high polyreactivity”.

“QVQLVESGGGLDQAGGSLRLSCAASGFTFASYAMGWYRQAPGKERELLAAITRSGGSTYYADSVKGRFTISRDNAKNTVYLHLTSLKPEDTAVYYCATDDEQHYYLLEYYYWGQGTQVTVSS”: the “polyreactivity (PSR sort gate)” value is “low polyreactivity”.

For the sequence “QVQLVESGGGLDQAGGSLRLSCAASGFTFTGYAMGWYRQAPGKERELVAAITRGGGSTYYADSVKGRFTISRDNAKNTVYLQMNSLKPEDTAVYYSAAQRSRLIRISSPYYGHDYWGQGTQVTVSS”, the “polyreactivity (PSR sort gate)” value is recorded as “low polyreactivity”.

With “QVQLVESGGGLDQAGGSLRLSCAASGFTLHSYALGWYRQAPGKERELVAAITTGGSTYYADSVKGRFTISRDNAKNTVYLQMNSLKPEDTAVYYCAAEDPGPYGGYVYWGQGTQVTVSS”, the “polyreactivity (PSR sort gate)” value is “low polyreactivity”.

With “QVQLVESGGGLDQAGGSLRLSCAASGIIFEQYAMGWYRQAPGKERELVAAISSGGTTYADSVKGRFTISRDNAKNTVYLQMNSLKPEYTAVYYCNDDLSWHGPDWSDYEYDYWGQGTQVTVSS”, the “polyreactivity (PSR sort gate)” value was “low polyreactivity”.

“QVQLVESGGGLDQAGGSLRLSCAASGIILYGYTMGGYRQAPGKERELVAAINRGGSTNYADSVKGRFTISRDNAKNTVYLQMNSLKPEDTAVYYCAVDTVVASTYDYWGQGTQVTVSS”: the “polyreactivity (PSR sort gate)” value was “low polyreactivity”.

As for “QVQLVESGGGLDQAGGSLRLSCAASGIILYRNGMGCYRQAPGKETELVAVISRRGGTYYADSVKGRFTISRDNAKNTVYLQVNSLKPEDTAVYYCAAYLSQKGNFRGGGDYWGQGTQVTVSS”, the “polyreactivity (PSR sort gate)” value is given as “high polyreactivity”.

For the sequence “QVQLVESGGGLDQAGGSLRLSCAASGITFQGYAMGWYRQAPGKERELVAAINDSGSSTYYADSVKGRFTISRDNAKNTVYLQMNSLKPEDTAVYYCAAYLWFWGQGTQVTVSS”, the “polyreactivity (PSR sort gate)” value is recorded as “low polyreactivity”.

As to “QVQLVESGGGLDQAGGSLRLSCAASGITFTVNARGWYREAPGKERELVAGITWSGGSTYYADSVKGRFTISRDNAKNTVYLQMNSLKPEDTAVYYCNADSDGFWSIYDYWGQGTQVTVSS”, the “polyreactivity (PSR sort gate)” value is reported as “low polyreactivity”.

With “QVQLVESGGGLDQAGGSLRLSCAASGLTFKWYAMGWYRQAPGKERELVAAIRTSAGSTYYADSVKGRFTISRDNAKNTVYLQMNSLKPEDTAVYYCNAVGYVFRYVYQYDYWGQCTQVTVSS”, the “polyreactivity (PSR sort gate)” value is “low polyreactivity”.

Turning to “QVQLVESGGGLDQAGGSLRLSCAASGLTFYKYAMGWYRQAPRKERELVASISRTGGSTYYADSVKGRFTISRDNANNTVYLQMNSLKPEDTAFYYCAARRGYYYGRVGYWGQGTQVTVSS”, the “polyreactivity (PSR sort gate)” value was “high polyreactivity”.

Turning to “QVQLVESGGGLDQAGGSLRLSCAASGNTFIRNALGWYRQAPGIERELVAAITSGTSTYYADSVKGRFTISRDNAQKTVYLQMNSLKPEDTALYYCAKRRNYWHYYWGQGTQVTVSS”, the “polyreactivity (PSR sort gate)” value was “high polyreactivity”.

As to “QVQLVESGGGLDQAGGSLRLSCAASGRIFTANVMGWYRQAPGKERELVAAIDYSGGSTYYADSVKGRFTISRDNAKNTVYLQMNSLKPEDTAVYSCNRDDYADYYHLEYDYWGQGTQVTVSS”, the “polyreactivity (PSR sort gate)” value is on record as “low polyreactivity”.

As for “QVQLVESGGGLDQAGGSLRLSCAASGRIFTTYAMGWYRQAPGKERELVAAISRSGGSTYYADSVKGRFTISRDNAKNTVYLQMNSLKPEDTAVYYCAAVPTSNSFRSSFYYWGQGTQVTVSS”, the “polyreactivity (PSR sort gate)” value is recorded as “high polyreactivity”.

In the case of “QVQLVESGGGLDQAGGSLRLSCAASGRIFTYNTMGWYRQAPGKEREFVASITYSGSSTYYADSVKGRFTISRDNAKNTVYLEMNSLKPEVTAVYYCAHRYGYSDGDYWGQGTQVTVSS”, the “polyreactivity (PSR sort gate)” value is “low polyreactivity”.

Turning to “QVQLVESGGGLDQAGGSLRLSCAASGRIFYYYALGWYRQAPGKERELVAAITWIGTSTYYADSVKGRFTISRDNGKNTVYLQMNSLKPEDTAVYYCAAEGWVGAWWYVLDVRYDYWGQGTQVTVSS”, the “polyreactivity (PSR sort gate)” value was “low polyreactivity”.

“QVQLVESGGGLDQAGGSLRLSCAASGRIGYYAMGWYRQAPGKETELVAAISYGGGSTYYADSVKGRFTISRDNAKNTVYLQLNSLKPEDTAVYYCAARWGKSWRGYGYWGQGTLVTVSS”: the “polyreactivity (PSR sort gate)” value is “high polyreactivity”.

“QVQLVESGGGLDQAGGSLRLSCAASGRTFEYNAMGLYRQAPGKERELVATIRYSGTSTYADSVKGRFTISRDNAKNTAYLQMNSLKPEDTAVYYCNKLGYYYDRRYDYWGQGTQVTVSS”: the “polyreactivity (PSR sort gate)” value is reported as “high polyreactivity”.

In the case of “QVQLVESGGGLDQAGGSLRLSCAASGRTFGKYAMGWYRQAPGKERELVAAITGGGGTKYADSVKGRFTISRDNAKNTFYLQMNSLKPEDTAVYYCAAASGSRRHGFWGQGTQVTVSS”, the “polyreactivity (PSR sort gate)” value is on record as “high polyreactivity”.

“QVQLVESGGGLDQAGGSLRLSCAASGRTFQGYAMGWYRQAPGKERELVAAISRSGGRTYYADSVKGRFTISRDNAKNTVYLQMNSLKPEATAVYFCATDAFRDYGYWGQGTQVTLSS”: the “polyreactivity (PSR sort gate)” value is reported as “high polyreactivity”.

With “QVQLVESGGGLDQAGGSLRLSCAASGRTFSYYAMGWYRQAPVKERELVAGISWRGTSTYADSVKGRFTISRDNAKNTFYLQMNRLKPEHTAVYYCNAEVTGHYSYHKFDYWGQGTQVTVSS”, the “polyreactivity (PSR sort gate)” value is given as “low polyreactivity”.

Turning to “QVQLVESGGGLDQAGGSLRLSCAASGRTFTHNVMGWYRQAPGKEMELVAGISSTGGSTYYADSVKVRFTISRDNAKNTVYLQMNSLKPEDTAVYYCAKQRRSFYDFFHYDYWGLGTQVTVSS”, the “polyreactivity (PSR sort gate)” value is reported as “low polyreactivity”.

Turning to “QVQLVESGGGLDQAGGSLRLSCAASGRTFTVNTMGWYIQAPGKERELVAAIPNGGSTNYADSVKGRFTISHDNAKNTVYLQMNSLKPEDTAVYYCAAYYYYTLYYRYDYWGQGTQVTVSS”, the “polyreactivity (PSR sort gate)” value was “low polyreactivity”.

On to “QVQLVESGGGLDQAGGSLRLSCAASGRTFVVYAMGWYRQAPGKERELVAAITSSGNTYYADSVKGRFTISRDNAKNTVYLQMNSLKPEDTAVYYCAAYSLYGYDYWGQGTQVTVSS”, for which the “polyreactivity (PSR sort gate)” value is “low polyreactivity”.

As for “QVQLVESGGGLDQAGGSLRLSCAASGRTFYTYVMGWYRQAPGKEREFLAAITYSGGSTYYADSVKGRFTISRDNAKNTVYLQMNSLKTEDSAVYYCNAEWTYSEWYGQYLEFDYWGQGTQVTVSS”, the “polyreactivity (PSR sort gate)” value is given as “high polyreactivity”.

Take “QVQLVESGGGLDQAGGSLRLSCAASGSIFDTYAMGWYIQAPGKSWELVAAISWGGGSTYYADSVKGRFTISRDNAKNTVYLQMNSLKPEDTAVYYCATEYFFLGGWYEYWGQGTQVTVSS”: the “polyreactivity (PSR sort gate)” value was “high polyreactivity”.

As for “QVQLVESGGGLDQAGGSLRLSCAASGSIFGFYAMGWSRQAPGKERELVAAITWRGGSTYYADSVKGRFTISRDNAKNTVYLQMTILKPEDTAVYYCAATSARRQTYNFAKYDYWGQGTQVTLSS”, the “polyreactivity (PSR sort gate)” value is on record as “low polyreactivity”.

Regarding “QVQLVESGGGLDQAGGSLRLSCAASGSIFGYNGMGWYRQAPGKESEFVAAISYSGSRTYYADSVKGRFTISRDNAKNTVYLQMNSLKPEDTAVYYCATDDSHYLYRTVSAWEYDYWGQGTQVTVSS”, the “polyreactivity (PSR sort gate)” value is “low polyreactivity”.

Take “QVQLVESGGGLDQAGGSLRLSCAASGSIFLRYAMGWYRQAPGKERELVAAITTGGGSTYYADSVKGRFTISRDNAKNTVYLQMNSLKPEDTAVYYCAKRAQYHWRGRDDYSYYYWGQGTQVTVSS”: the “polyreactivity (PSR sort gate)” value is “low polyreactivity”.

As for “QVQLVESGGGLDQAGGSLRLSCAASGSIFMPNAMGWYRQAPGKERELVAAISASTSSTYYADSVKGRFTISRDNAKNTVYLEMNSLKPEDTGVYYCAAYYVFFYLEDVYYEYDYWGQGTQVTVSS”, the “polyreactivity (PSR sort gate)” value was “high polyreactivity”.

Turning to “QVQLVESGGGLDQAGGSLRLSCAASGSIFPLYAKGWYRQAPGKERELVADITVSGGSTYYADSVKGRFTISRDYAKNTVYLQMNSLKPEDTAVYYCAKDNGPWFAYDYWGQGTHVTVSS”, the “polyreactivity (PSR sort gate)” value is given as “low polyreactivity”.

Take “QVQLVESGGGLDQAGGSLRLSCAASGSIFRSYAMGWYRQAPGKERELVATIDRSGGSTYYADSVKGRFTISRDNAKNTVYLQMNSLKPEDTAVYYCNKTPHFPRPGFNYWGQGTQVTVSS”: the “polyreactivity (PSR sort gate)” value was “low polyreactivity”.

Regarding “QVQLVESGGGLDQAGGSLRLSCAASGSIFVLYAMGWYRQAPGKERELVAAITRSGGDTYYADSVKGRFTISRDNAKNTVYLQMNSLKPEDTAVYYCAAERSWYPWVATGYYWGQGTQVTVSS”, the “polyreactivity (PSR sort gate)” value is reported as “low polyreactivity”.

Take “QVQLVESGGGLDQAGGSLRLSCAASGSIFVRNAMGWYRQAPGKERELVASISRRGGSTYYADSVKGRFTISRDNAKNTVYLQMNSLKPEDTAVYYCAAVVRRAPEFDYWGQGTQVTVSS”: the “polyreactivity (PSR sort gate)” value is given as “high polyreactivity”.

As to “QVQLVESGGGLDQAGGSLRLSCAASGSNLVSNDMGWYRQAPGKERELVAAMSWSGGSTYYADSVKGRFTISRDNAKNTVYLHMNSLKPEDTAVYYCAAGFGFLFARQELEFDYWGQGTQVTVSS”, the “polyreactivity (PSR sort gate)” value is “low polyreactivity”.

For “QVQLVESGGGLDQAGGSLRLSCAASGSTFDGYAMGWYRRAPGKERELVAAITSSDGSTYYADSVKGRFTISRDNAKHTVYLQMYSLKPEDTAVYYCAAAPDWKDSLPPDMDYWGQGTQVSVSS”, the “polyreactivity (PSR sort gate)” value was “low polyreactivity”.

“QVQLVESGGGLDQAGGSLRLSCAASGSTFSRYAMGWYRQPPGKERELVAAISWRGGSTYYADSVKGRFTISRDNAKNTVYLQMNSLKPEDTAVYYCNKAGFWFVVYKRQEYWGQGTQVTVSS”: the “polyreactivity (PSR sort gate)” value is listed as “high polyreactivity”.
